± gives the uncertainty stated by the source.
Assay: protein stability index of a GFP-peptide fusion (yeast GPS) (PSI 1-4); higher = more stable; sorted into four equal gates, so the index is relative within each strain
Outline: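 For each peptide, the protein stability index sums the read frequency in every gate after multiplying it by the gate number. Read frequencies came from plasmids that were PCR-amplified from each gate and Illumina-sequenced, with reads assigned to strains by barcodes. The gates were four equal bins of GFP/Cherry fluorescence ratio applied to mid-log yeast in leucine-free medium carrying a pooled library of tiled 17-residue yeast protein peptides fused downstream of GFP on a Cherry-expressing plasmid.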

Sequence | protein stability index (doa10∆) | protein stability index (pdr5∆) | protein stability index (san1∆) | protein stability index (ubr1∆)
FDTDWNPHQDLQAQDRA [SNF2] | 3.07 ± 0.068 | 3.16 ± 0.056 | 2.94 ± 0.037 | 3.35 ± 0.05
LEERFDPKSPTKRSIAI [YMR129W/POM152] | 2.94 ± 0.055 | 3.14 ± 0.055 | 2.9 ± 0.037 | 3.02 ± 0.034
NADFQKPWFATVNGQAR [FAS1] | 2.41 ± 0.066 | 2.37 ± 0.11 | 2.45 ± 0.082 | 2.87 ± 0.1
LIDSLENHLLVMKQVET [PRP28] | 2.49 ± 0.11 | 2.19 ± 0.073 | 1.69 ± 0.19 | 2.06 ± 0.063
ENGERKLYDAKRYTSEG [YMR129W/POM152] | 3.35 ± 0.12 | 2.92 ± 0.1 | 2.96 ± 0.1 | 3.29 ± 0.085
QDSMSKGTGEESNDRIN [YGR119C/NUP57] | 3.33 ± 0.098 | 3.22 ± 0.15 | 3.23 ± 0.09 | 3.38 ± 0.057
LALAETLKLRARQRGKL [SRP68] | – | 2.64 ± 0.21 | 2.25 ± 0.26 | 2.97 ± 0.098
AAGTSQARTATLKYICA [RPC10] | 2.16 ± 0.15 | 2.07 ± 0.11 | 1.72 ± 0.11 | 2.24 ± 0.094
IQLQEFLLSAMTMASKS [NSL1] | 1.5 ± 0.058 | 1.83 ± 0.1 | 1.81 ± 0.09 | 1.93 ± 0.059
RYNVEKVKRLMDFLEED [NSL1] | 2.08 ± 0.098 | 1.26 ± 0.16 | – | 2.25 ± 0.19
ALSKFLTHPKYLNSRII [YML103C/NUP188] | 1.16 ± 0.057 | 1.32 ± 0.077 | 1.38 ± 0.093 | 1.58 ± 0.066
MTKTITVAHIQYDFKAV [RPN14] | 2.42 ± 0.083 | 3.09 ± 0.095 | 2.4 ± 0.063 | 2.71 ± 0.043
GHPMTKSVYETPKITAA [SEC65] | 2.83 ± 0.17 | 2.63 ± 0.084 | 2.03 ± 0.24 | 1.91 ± 0.062
KVAKKRLGSFTRAKAKV [RPL36A] | – | 2.64 ± 0.21 | 3.1 ± 0.16 | 2.86 ± 0.29
PPDIHPNLGPQLWLNSS [GRR1] | 3.28 ± 0.089 | 3.36 ± 0.089 | 3.21 ± 0.066 | 3.14 ± 0.067
DAKSSAYSSRFQTPFRR [RPL5] | 2.82 ± 0.067 | 2.83 ± 0.052 | 2.78 ± 0.054 | 2.91 ± 0.05
ARILGTRALQISMNAPV [RPO26] | – | 1.45 ± 0.24 | – | 1.39 ± 0.13
PITASMAAALPNPTPSM [PGD1] | 2.47 ± 0.083 | 2.54 ± 0.066 | 2.55 ± 0.073 | 2.51 ± 0.067
MTSIGTGYDLSNSVFSP [PRE10] | 2.77 ± 0.085 | 2.91 ± 0.11 | 2.23 ± 0.27 | 2.8 ± 0.12
VAIGLNGKIWVKCEELS [RRP40] | 1.58 ± 0.2 | 2.25 ± 0.24 | 2.94 ± 0.16 | 1.73 ± 0.1
SKESWRYDWYQPSKVSS [RTT102] | 2.09 ± 0.097 | 2.33 ± 0.098 | 1.94 ± 0.074 | 1.96 ± 0.036
MTDRYSFSLTTFSPSGK [PRE8] | – | 3.16 ± 0.25 | – | –
VNLENPIPIAVLDSYTP [FAS1] | 1.42 ± 0.046 | 1.7 ± 0.036 | 1.69 ± 0.071 | 1.42 ± 0.027
EFVNGGKVVKNVLLLDS [RRP46] | 2.42 ± 0.17 | 2.02 ± 0.069 | 1.34 ± 0.2 | 1.9 ± 0.11
YSTANEYIIAAIRKAPH [RPN3] | 2.82 ± 0.061 | 2.64 ± 0.052 | 2.62 ± 0.042 | 2.62 ± 0.047

Sequence | protein stability index (doa10∆) | protein stability index (pdr5∆) | protein stability index (san1∆) | protein stability index (ubr1∆)
TGLSQIPNRRFTLWWSP [PRP8] | 3.04 ± 0.058 | 2.78 ± 0.056 | 1.87 ± 0.048 | 2.52 ± 0.042
MLQISDDNEMTRDDLLT [RRI2] | 2.93 ± 0.1 | 3.27 ± 0.1 | 3.17 ± 0.038 | 3.1 ± 0.056
ATMENIQKGKFTLLDFK [SRP54] | 2.98 ± 0.068 | 3.04 ± 0.081 | 2.42 ± 0.089 | 2.96 ± 0.046
KRRFDPSSSDSNGPRAA [RRP6] | 3.25 ± 0.073 | 3.31 ± 0.089 | 3.21 ± 0.048 | 3.33 ± 0.052
PPLTSQYSTRHDAPRGL [SWI3] | 3.13 ± 0.047 | 3.19 ± 0.06 | 3.14 ± 0.05 | 3.21 ± 0.045
EIFAFGNIKDLPENIIL [CSN9] | 2.7 ± 0.066 | 2.92 ± 0.056 | 2.8 ± 0.043 | 2.93 ± 0.042
VGVSHTNEEVRNMAEEF [CYT1] | 2.85 ± 0.13 | 2.35 ± 0.07 | 2.01 ± 0.13 | 2.22 ± 0.043
EDIMVHYDNTTRNSLGN [RPO21] | 3.1 ± 0.09 | 3.1 ± 0.095 | 3.35 ± 0.041 | 3.06 ± 0.075
LLSGEDLTLDDISLKAD [YJL039C/NUP192] | 3.36 ± 0.052 | 3.39 ± 0.065 | 3.44 ± 0.038 | 3.23 ± 0.048
LVQEQVREFQRRLAFLG [BRR2] | 2.07 ± 0.12 | 1.16 ± 0.14 | 1.04 ± 0.22 | 1.17 ± 0.087
AGSAALKIIHDTFRWVG [RPO31] | 3.23 ± 0.093 | 2.85 ± 0.12 | 1.19 ± 0.17 | 3.24 ± 0.063
NNKIITLVKGPKEPRLK [SKI6] | 2.91 ± 0.2 | 2.86 ± 0.16 | – | 3.14 ± 0.081
VRVRTTKIPQIGDKFAS [RPB2] | 2.55 ± 0.068 | 2.68 ± 0.072 | 3.13 ± 0.064 | 2.66 ± 0.035
DMANEIILSIDEHHESF [RRP6] | 3.01 ± 0.068 | 2.98 ± 0.093 | 2.95 ± 0.062 | 2.9 ± 0.049
DRVFNVPTIGVVNSNFA [YJR042W/NUP85] | 2.57 ± 0.08 | 2.7 ± 0.085 | 2.48 ± 0.086 | 2.5 ± 0.036
AGHVSGVITVHNVFSKE [RPN14] | 1.85 ± 0.15 | 1.75 ± 0.14 | 2.92 ± 0.077 | 2.79 ± 0.13
GGSAKPSLKFKPKAVAR [RPC53] | 2.79 ± 0.11 | 2.7 ± 0.081 | 2.44 ± 0.067 | 2.92 ± 0.073
AVHNGDRKHVAALRTVK [RPL9B] | 2.09 ± 0.064 | 2.23 ± 0.076 | 2.36 ± 0.061 | 2.71 ± 0.049
WQGKPVFIRHRTPHEIQ [RIP1] | – | 2.24 ± 0.28 | – | 1.68 ± 0.17
VAKRRFEYSKYRPLTPS [RRP6] | 3.27 ± 0.066 | 3.28 ± 0.084 | 3.15 ± 0.035 | 2.96 ± 0.049
HTSSGSVSFKVFLLLQA [BRR2] | 1.79 ± 0.042 | 1.84 ± 0.044 | 1.5 ± 0.074 | 1.62 ± 0.056
TRSIKEKWLLNQIPVTE [SRB6] | 1.13 ± 0.1 | 1.34 ± 0.18 | 1.29 ± 0.19 | 1.18 ± 0.17
SSGVLSSNIAGTNPLSS [SSN2] | 3.41 ± 0.13 | 2.9 ± 0.12 | 2.83 ± 0.19 | 3.31 ± 0.088
GASNGDDSNGGNGEGLG [BRN1] | 3.42 ± 0.14 | 2.83 ± 0.23 | 3.68 ± 0.16 | 3.19 ± 0.084

Reference: the supplement of paper PMC9732359
